From the supplement of paper PMC10567573

B1: KCNA4 (parent)
chain: YQLGEEALLKFREDEGFVREEEDR
B2: SLC35F2 (parent)
chain: FVAFALCMFCLYSFMPLVIKVTSA

Variants of: B1
Experiment: protein stability index of a GFP-peptide fusion (GPS, HEK-293T) (PSI 1-6); higher = more stable
Conditions: c terminus: a fixed tail appended
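Also: lentivirally expressed fusions sorted by FACS into six bins by GFP to DsRed ratio, PSI derived from sequencing read proportions per bin multiplied by bin number.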

Protein stability index of substitutions, site by site:
G4: E 5.77, F 4.28, K 5.34, L 4.41, H 4.8, D 4.43, C 4.51, I 4.83, A 5.24
Y1: R 5.81, K 5.6, Q 5.41, D 5.79, L 4.96, V 5.58, P 5.63, A 5.7, T 5.57, C 5.21, S 5.53, G 5.95, E 5.74, H 5.47, I 5.3, F 4.45, M 5.47, N 5.67, W 5.25
Q2: V 4.21, A 5.36, G 5.23, H 2.94, M 4.79, T 5.31, I 4.43, W 4.19, N 5.23, K 5.7, P 5.15, E 5.37, R 5.09, D 5.62, L 4.24, F 4.15, C 4.91, Y 4.31, S 5.61
L3: R 4.75, D 5.85, Y 5.23, A 5.22, S 4.86, Q 5.62, F 4.7, K 5.02, G 4.53, H 5.22, W 3.89, T 5.31, I 5.12, V 5.28, M 3.76, P 5.28, C 4.38, N 5.68, E 5.67

Variants of: B2
Experiment: as above
Conditions: c terminus: a fixed tail appended

Protein stability index, by site and new letter:
T22: E 3.47, L 3.31, W 2.77, V 3.01, D 2.05, C 2.54, I 2.71, F 2.36, R 3.29, N 3.68, H 3.96, P 3.35, A 2.77, Y 2.75, S 2.33, Q 3.07, G 2.96
V21: L 2.06, C 1.7, F 2.01, H 2.9, Y 3.26, M 3.27, W 3.02, S 3.11, N 4.29, A 2.26, E 3.06, P 2.76, R 2.38, Q 1.85, I 2.6
I19: D 2.73, Q 3.62, S 2.42, P 2.86, C 2.7, M 2.48, Y 1.94, F 2.69, G 3.04, L 3.06, V 3.21, T 3.51, W 4.11, E 2.87, H 2.14, K 3.47
S23: R 2.78, E 2.49, Q 2.39, C 2.9, W 2.54, L 2.89, T 2.71, Y 2.03, K 2, P 2.96, F 3.51, A 2.39, G 3.19, D 2.85, I 2.45
K20: Q 3.38, D 2.22, I 2.63, C 3.38, H 1.78, A 2.95, R 3.56, G 2.9, F 2.03, N 3.16, Y 2.76, S 2.55, P 2.56, L 3.04, E 2.71, V 2.56, T 3.12, M 2.62
V18: W 2.6, Y 2.54, R 3.05, S 2.91, T 2.57
A24: M 2.66, D 2.65, R 1.84, P 3.3, I 2.65, H 3.79, V 3.15, T 3.11, C 1.31, K 2.04, N 2.63, E 2.42, W 3.16, L 3.27, S 2.61
